Results on 2 molecules are retold here after PMC7093153 (eLife, 2020).

First the molecules themselves.
B1: Rad51 (S. pombe), purified (natural protein, UniProt P36601 1-365, looked up)
chain: MADTEVEMQVSAADTNNNENGQAQSNYEYDVNVQDEEDEAAAGPMPLQMLEGNGITASDIKKIHEAGYYTVESIAYTPKRQLLLIKGISEAKADKLLGEASKLVPMGFTTATEYHIRRSELITITTGSKQLDTLLQGGVETGSITELFGEFRTGKSQICHTLAVTCQLPIDMGGGEGKCLYIDTEGTFRPVRLLAVADRYGLNGEEVLDNVAYARAYNADHQLELLQQAANMMSESRFSLLVVDSCTALYRTDFSGRGELSARQMHLARFMRTLQRLADEFGIAVVITNQVVAQVDGISFNPDPKKPIGGNILAHSSTTRLSLRKGRGEQRICKIYDSPCLPESEAIFAINSDGVGDPKEIIAPV
B2: Swi5-Sfr1 complex (wild type, full-length Sfr1) (complex, S. pombe)
chain 1: MEKSQLESRVHLLEQQKEQLESSLQDALAKLKNRDAKQTVQKHIDLLHTYNEIRDIALGMIGKVAEHEKCTSVELFDRFGVNGSE
chain 2: MSQTINSELNENATSQCKEDLKVSLSESDLRDSQGQLGIENPPKCNNSGNHSDNLGFIEQSETVHPENEKALTPDLRDTKIHTSLPITTPFSKKRAREAKNILLKPFKSPLRQTASPQVADTNLKPSLAVTNLNSDETNTSSEPVTSPLRTTPNSIKRQKRLFKSPISNCLNPKSDPEITQLLSRRLKLEKEVRNLQEQLITAETARKVEAKNEDKDLQTLIQKWKNAAQQAAEVLFKPMAERIRLAGGVTQSFRIEEGENKGQIQEVRTEFTMSMFLNQFGVPVHLMSFDEENGDWKS

The data set “SEC” deals with the molecule itself. The data set can be described thus: SEC. A general note: In gel filtration, larger molecules generally elute earlier.
In data set [1] the target is B2. The data set can be described thus: pull-down.
The target of data set [2] is B1. The data set can be described thus: cell-based or functional assay.

Regarding B1, the binding result (in the data set “SEC”; in data set [1]) was “binds” each time. On to B2, for which the “Rad51-dependent ATP turnover, Swi5-Sfr1:Rad51 ratio of 1:20” value in data set [2] was found to be 1.85 fold.
